This is an account of results in EP4696329A1 (BioRay Pharmaceutical Co., Ltd., dated 2024).

Like-named read-outs stand apart in the source and are kept apart here.

For experiment [1], the target named is T1, human ROR2 protein (hROR2, Kactus Biosystems, Cat. No. ROR-HM402) (human, UniProt Q01974 34-403, limits assumed). As to the kind of experiment: ELISA, plate coated with hROR2. For orientation: In an ELISA, binding on a coated surface is turned into a signal by an enzyme label.
The target of experiment [2] is T2, human ROR1 expressed on cells (MDA-MB-231, Jeko-1, PA-1, HCC1187) (human, UniProt Q01973 30-937).
T2 construct: also called hROR1
As to the kind of experiment: flow cytometry on MDA-MB-231 cells.

The target of experiment [3] is T3, human ROR1 protein (recombinant ROR1 antigen, Kactus Biosystems) (human, UniProt Q01973 30-406, limits assumed). Nature of the experiment: BLI (Octet R8), antibody captured on AHC sensor, ROR1 antigen as analyte. On the technique in general: Biolayer interferometry detects binding as a change in optical thickness at a sensor tip.
Experiment [4] deals with T2, human ROR1 expressed on cells …. As to the kind of experiment: flow cytometry on MDA-MB-231 cells. The source holds these as a separate data set. (Flow cytometry measures light scatter and fluorescence of single cells or particles in a stream.)
Experiment [5] shares this target. As to the kind of experiment: flow cytometry on MDA-MB-231 cells. This is another data set of the same source.
Experiment [6] has as its target T3, human ROR1 protein (recombinant ROR1 …). As to the kind of experiment: binding to ROR1 (column 'Binding to ROR1'; method not described).
Experiment [7] addresses T1, human ROR2 protein (hROR2, Kactus …). Nature of the experiment: ELISA, plate coated with hROR2. This is another data set of the same source.
Experiment [8] addresses T3, human ROR1 protein (recombinant ROR1 …). As to the kind of experiment: BLI (Octet R8), antibody captured on AHC sensor, ROR1 antigen as analyte. This is another data set of the same source.
Experiment [9] has as its target T2, human ROR1 expressed on cells …. Nature of the experiment: flow cytometry on Jeko-1 cells.
The target in experiment [10] is T3, human ROR1 protein (recombinant ROR1 …). As to the kind of experiment: BLI (Octet R8), antibody captured on AHC sensor, ROR1 antigen as analyte. This is another data set of the same source.
For experiment [11], the target named is T2, human ROR1 expressed on cells …. Nature of the experiment: flow cytometry on PA-1 cells.
Experiment [12] deals with T1, human ROR2 protein (hROR2, Kactus …). Nature of the experiment: ELISA, plate coated with hROR2. This is another data set of the same source.
The target in experiment [13] is T2, human ROR1 expressed on cells …. Nature of the experiment: flow cytometry on Jeko-1 cells. This is another data set of the same source.

T1 sequence (Q01974 34-403 limits assumed): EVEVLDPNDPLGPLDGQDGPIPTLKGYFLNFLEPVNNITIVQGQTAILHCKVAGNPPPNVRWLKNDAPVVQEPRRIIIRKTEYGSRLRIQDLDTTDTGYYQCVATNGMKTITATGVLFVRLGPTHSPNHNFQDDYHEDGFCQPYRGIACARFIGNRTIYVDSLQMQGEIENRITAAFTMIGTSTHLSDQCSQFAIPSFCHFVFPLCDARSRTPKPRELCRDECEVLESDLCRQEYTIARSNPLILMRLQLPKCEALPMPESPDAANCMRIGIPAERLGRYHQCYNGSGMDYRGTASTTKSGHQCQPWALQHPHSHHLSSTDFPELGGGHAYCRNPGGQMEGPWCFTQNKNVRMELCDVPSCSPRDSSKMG
T2 sequence (Q01973 30-937 limits assumed): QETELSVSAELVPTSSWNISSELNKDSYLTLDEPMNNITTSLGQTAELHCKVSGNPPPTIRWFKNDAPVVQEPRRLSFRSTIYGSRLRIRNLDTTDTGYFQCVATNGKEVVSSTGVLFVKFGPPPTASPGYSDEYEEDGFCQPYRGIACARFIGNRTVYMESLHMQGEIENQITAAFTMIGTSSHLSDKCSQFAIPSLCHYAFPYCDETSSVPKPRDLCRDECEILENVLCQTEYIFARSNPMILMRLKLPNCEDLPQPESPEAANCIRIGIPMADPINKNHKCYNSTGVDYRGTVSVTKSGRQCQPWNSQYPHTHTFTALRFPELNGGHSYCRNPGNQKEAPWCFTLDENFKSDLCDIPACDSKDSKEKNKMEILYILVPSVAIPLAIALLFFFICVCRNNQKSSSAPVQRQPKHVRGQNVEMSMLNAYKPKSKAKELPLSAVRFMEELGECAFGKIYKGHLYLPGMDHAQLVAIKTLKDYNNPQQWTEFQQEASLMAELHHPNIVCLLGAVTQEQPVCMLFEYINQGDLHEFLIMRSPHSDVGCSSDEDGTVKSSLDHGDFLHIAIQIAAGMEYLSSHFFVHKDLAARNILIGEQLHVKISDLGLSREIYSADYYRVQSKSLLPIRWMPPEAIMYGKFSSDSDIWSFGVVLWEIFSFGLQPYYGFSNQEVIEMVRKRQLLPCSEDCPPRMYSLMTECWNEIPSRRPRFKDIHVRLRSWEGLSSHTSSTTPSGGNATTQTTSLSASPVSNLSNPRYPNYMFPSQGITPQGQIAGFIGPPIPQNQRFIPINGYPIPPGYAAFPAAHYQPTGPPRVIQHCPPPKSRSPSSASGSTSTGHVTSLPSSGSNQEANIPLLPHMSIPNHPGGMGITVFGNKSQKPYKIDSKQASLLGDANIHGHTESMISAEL
T3 sequence (Q01973 30-406 limits assumed): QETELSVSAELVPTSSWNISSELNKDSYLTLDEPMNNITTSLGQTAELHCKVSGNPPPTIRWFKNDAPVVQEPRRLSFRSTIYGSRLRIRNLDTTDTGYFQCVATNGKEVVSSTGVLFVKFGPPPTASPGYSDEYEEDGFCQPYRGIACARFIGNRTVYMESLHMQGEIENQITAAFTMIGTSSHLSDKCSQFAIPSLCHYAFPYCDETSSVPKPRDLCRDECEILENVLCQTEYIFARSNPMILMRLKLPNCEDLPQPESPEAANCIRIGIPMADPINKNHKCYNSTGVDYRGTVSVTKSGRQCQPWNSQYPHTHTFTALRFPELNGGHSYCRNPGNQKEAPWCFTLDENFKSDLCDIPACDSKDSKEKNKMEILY

B1: chimeric antibody ch-D10 (antibody, human IgG1, kappa, V domains shown)
VH: QVQLKESGPGLVAPSQTLSITCTVSGFSLTSYGVHWVRQPPGKGLEWLGVIWAGGFTNYNSALKSRLSISKDNSKSQVLLKMTSLQTDDTAMYYCARRGSSYSMDYWGQGTSVTVSS
VL: EIVLSQSPAITAASLGQKVTITCSASSNVSYIHWYQQRSGTSPRPWIYEISKLASGVPVRFSGSGSGTSYSLTISSMEAEDAAIYYCQQWNYPLITFGSGTKLEIQR
notes: VH/VL of murine D10 on human IgG1 / kappa constant regions
As for B1, in experiment [1], the binding result was “no binding (tested: starting from 333.33 nM)”. This molecule came in with an EC50 in experiment [2] of 0.0634 µg/mL. For the same molecule, the Kd in [3] was determined as 26.6 nM.

B2: YR-8 (antibody, human IgG1, kappa, V domains shown)
VH: QVQLQESGPGLVKPSETLSLTCTVSGFSLTRYGVHWIRQPPGKGLEWLGVIWAGGFTNYNSDLKSRLTISKDNSKNQVSLKLSSVTAADTAVYYCARRGDSYSMKYWGQGTLVTVSS
VL: EIVLTQSPATLSLSPGERATLSCSASSQVSYIHWYQQKPGQAPRPWIYETSKLASGIPARFSGSGSGTDYTLTISSLEPEDFAVYYCQQWNYPLITFGQGTKLEIKR
For B2, the 50% effective concentration (EC50) in [4] was 0.02 µg/mL; in experiment [5] it was 0.03 µg/mL; in [6] it was 0.01 µg/mL; in [9], 0.005 µg/mL. In addition, the binding result in [7] is recorded as “no binding (tested: starting from 333.33 nM)”. Besides, the Kd in [8] was 9.82 nM; in experiment [10], 18 nM.

B3: humanized antibody BRHu-3 (antibody, human IgG1, kappa, V domains shown)
VH: QVQLQESGPGLVKPSETLSLTCTVSGFSLTSYGVHWIRQPPGKGLEWLGVIWAGGFTNYNSALKSRLTISKDNSKNQVSLKLSSVTAADTAVYYCARRGSSYSMDYWGQGTLVTVSS
VL: EIVLTQSPATLSLSPGERATLSCSASSNVSYIHWYQQKPGQAPRPWIYEISKLASGIPARFSGSGSGTDYTLTISSLEPEDFAVYYCQQWNYPLITFGQGTKLEIKR
notes: humanized D10, human IgG1 / kappa
On to B3, for which the values for the concentration giving a half-maximal response (EC50) in experiment [4], in experiment [2] and in [9] were 0.09 µg/mL, 0.0818 µg/mL and 0.03 µg/mL, respectively. Moreover, the binding result in experiment [1] was “no binding (tested: starting from 333.33 nM)”. In addition, the Kd is 63.6 nM in [8] and 32.3 nM in [3].

B4: YR-11 (antibody, human IgG1, kappa, V domains shown)
VH: QVQLQESGPGLVKPSETLSLTCTVSGFSLTRYGVHWIRQPPGKGLEWIGVIWAGGFTNYNSALKSRVTISKDNSKNQVSLKLSSVTAADTAVYYCARRGNEYSMSYWGQGTLVTVSS
VL: EIVLTQSPATLSLSPGERATLSCSASSQVSYIHWYQQKPGQAPRPWIYETSKLASGIPARFSGSGSGTDYTLTISSLEPEDFAVYYCQQWNYPLITFGQGTKLEIKR
B4: the EC50 is 0.02 µg/mL in experiment [4] and 0.007 µg/mL in experiment [9]. Besides, in experiment [7], the binding result is on record as “binds”. Also, the dissociation constant (Kd) in experiment [8] was found to be 7.63 nM.

B5: YR-8-ES (antibody, human IgG1, kappa, V domains shown)
VH: QVQLQESGPGLVKPSETLSLTCTVSGFSLTRYGVHWIRQPPGKGLEWLGVIWAGGFTNYESDLKSRLTISKDNSKNQVSLKLSSVTAADTAVYYCARRGDSYSMKYWGQGTLVTVSS
VL: EIVLTQSPATLSLSPGERATLSCSASSQVSYIHWYQQKPGQAPRPWIYETSKLASGIPARFSGSGSGTDYTLTISSLEPEDFAVYYCQQWNYPLITFGQGTKLEIKR
notes: YR-8 with N60E (Kabat) in the heavy chain; human IgG1 / kappa
As to B5, the concentration giving a half-maximal response (EC50) in experiment [5] was 0.05 µg/mL; in experiment [6], 0.01 µg/mL; in [11], 0.25 nM; in [13], 0.15 nM. In addition, the MFI fold was 2.6 fold in experiment [11] and 3.6 fold in [13]. The binding result in [12] is “no binding (tested: starting from 333.33 nM)”. Moreover, the equilibrium dissociation constant (Kd) in experiment [10] worked out at 19 nM.

B6: YR-8-NV (antibody, human IgG1, kappa, V domains shown)
VH: QVQLQESGPGLVKPSETLSLTCTVSGFSLTRYGVHWIRQPPGKGLEWLGVIWAGGFTNYNVDLKSRLTISKDNSKNQVSLKLSSVTAADTAVYYCARRGDSYSMKYWGQGTLVTVSS
VL: EIVLTQSPATLSLSPGERATLSCSASSQVSYIHWYQQKPGQAPRPWIYETSKLASGIPARFSGSGSGTDYTLTISSLEPEDFAVYYCQQWNYPLITFGQGTKLEIKR
notes: YR-8 with S61V (Kabat) in the heavy chain
B6: the binding result in experiment [12] was “binds”. Also, in experiment [10], the dissociation constant Kd was 16 nM.

B7: YR-21 (antibody, human IgG1, kappa, V domains shown)
VH: QVQLQESGPGLVKPSETLSLTCTVSGFSLTRYGVHWIRQPPGKGLEWLGVIWAGGFTNYNSGLKSRLTISKDNSKNQVSLKLSSVTAADTAVYYCARRGDQYSMGYWGQGTLVTVSS
VL: EIVLTQSPATLSLSPGERATLSCSASSQVSYIHWYQQKPGQAPRPWIYETSKLASGIPARFSGSGSGTDYTLTISSLEPEDFAVYYCQQWNYPLITFGQGTKLEIKR
On to B7, for which the binding result in experiment [7] is “binds”. Further, the dissociation constant (Kd) in experiment [8] was 6.21 nM.

B8: YR-10 (antibody, human IgG1, kappa, V domains shown)
VH: QVQLQESGPGLVKPSETLSLTCTVSGFSLTRYGVHWIRQPPGKGLEWIGVIWAGGFTNYNSTLKSRVTISKDNSKNQVSLKLSSVTAADTAVYYCARRGNQYSMKYWGQGTLVTVSS
VL: EIVLTQSPATLSLSPGERATLSCSASSQVSYIHWYQQKPGQAPRPWIYETSKLASGIPARFSGSGSGTDYTLTISSLEPEDFAVYYCQQWNYPLISFGQGTKLEIKR
On to B8, for which the EC50 in [4] was found to be 0.06 µg/mL; in [9], 0.01 µg/mL. In [7], the binding result is recorded as “binds”. The dissociation constant Kd in experiment [8] stood at 11.3 nM.

B9: YR-8-NL (antibody, human IgG1, kappa, V domains shown)
VH: QVQLQESGPGLVKPSETLSLTCTVSGFSLTRYGVHWIRQPPGKGLEWLGVIWAGGFTNYNLDLKSRLTISKDNSKNQVSLKLSSVTAADTAVYYCARRGDSYSMKYWGQGTLVTVSS
VL: EIVLTQSPATLSLSPGERATLSCSASSQVSYIHWYQQKPGQAPRPWIYETSKLASGIPARFSGSGSGTDYTLTISSLEPEDFAVYYCQQWNYPLITFGQGTKLEIKR
notes: YR-8 with S61L (Kabat) in the heavy chain
Turning to B9, in experiment [12], the binding result is “binds”. Moreover, the Kd in experiment [10] was 16 nM.

B10: YR-8-NI (antibody, human IgG1, kappa, V domains shown)
VH: QVQLQESGPGLVKPSETLSLTCTVSGFSLTRYGVHWIRQPPGKGLEWLGVIWAGGFTNYNIDLKSRLTISKDNSKNQVSLKLSSVTAADTAVYYCARRGDSYSMKYWGQGTLVTVSS
VL: EIVLTQSPATLSLSPGERATLSCSASSQVSYIHWYQQKPGQAPRPWIYETSKLASGIPARFSGSGSGTDYTLTISSLEPEDFAVYYCQQWNYPLITFGQGTKLEIKR
notes: YR-8 with S61I (Kabat) in the heavy chain
B10: the binding result in experiment [12] was “binds”. For the same molecule, the Kd in experiment [10] is 14 nM.

B11: YR-8-NT (antibody, human IgG1, kappa, V domains shown)
VH: QVQLQESGPGLVKPSETLSLTCTVSGFSLTRYGVHWIRQPPGKGLEWLGVIWAGGFTNYNTDLKSRLTISKDNSKNQVSLKLSSVTAADTAVYYCARRGDSYSMKYWGQGTLVTVSS
VL: EIVLTQSPATLSLSPGERATLSCSASSQVSYIHWYQQKPGQAPRPWIYETSKLASGIPARFSGSGSGTDYTLTISSLEPEDFAVYYCQQWNYPLITFGQGTKLEIKR
notes: YR-8 with S61T (Kabat) in the heavy chain
As to B11, the binding result in [12] is recorded as “binds”. In addition, the Kd in [10] came out at 16 nM.

B12: YR-4 (antibody, human IgG1, kappa, V domains shown)
VH: QVQLQESGPGLVKPSETLSLTCTVSGFSLTRYGVHWIRQPPGKGLEWIGVIWAGGFTNYNSSLKSRVTISKDNSKNQVSLKLSSVTAADTAVYYCARRGDGYSMQYWGQGTLVTVSS
VL: EIVLTQSPATLSLSPGERATLSCSASSQVSYIHWYQQKPGQAPRPWIYEISKLASGIPARFSGSGSGTDYTLTISSLEPEDFAVYYCQQWNYPLITFGQGTKLEIKR
As for B12, the binding result in [7] is “binds”. Also, the equilibrium dissociation constant (Kd) in experiment [8] amounted to 10 nM.

B13: YR-8-NA (antibody, human IgG1, kappa, V domains shown)
VH: QVQLQESGPGLVKPSETLSLTCTVSGFSLTRYGVHWIRQPPGKGLEWLGVIWAGGFTNYNADLKSRLTISKDNSKNQVSLKLSSVTAADTAVYYCARRGDSYSMKYWGQGTLVTVSS
VL: EIVLTQSPATLSLSPGERATLSCSASSQVSYIHWYQQKPGQAPRPWIYETSKLASGIPARFSGSGSGTDYTLTISSLEPEDFAVYYCQQWNYPLITFGQGTKLEIKR
notes: YR-8 with S61A (Kabat) in the heavy chain
With B13, in [12], the binding result is “binds”. The dissociation constant Kd in experiment [10] was 14 nM.

As a reminder, the EC50 is the midpoint of the concentration-response curve. A word on the Kd: it is the free concentration of one partner at which half of the binding sites on the other are occupied at equilibrium, for simple one-to-one binding.
